Results reported in US20230322953A1 (HARBOUR BIOMED SHANGHAI, published 2023).

T1: human BCMA (human, UniProt Q02223 1-184)
T1 construct: whole, on cells; the cell line is named under assay; also called TNFRSF17; CD269
T1 sequence (looked up): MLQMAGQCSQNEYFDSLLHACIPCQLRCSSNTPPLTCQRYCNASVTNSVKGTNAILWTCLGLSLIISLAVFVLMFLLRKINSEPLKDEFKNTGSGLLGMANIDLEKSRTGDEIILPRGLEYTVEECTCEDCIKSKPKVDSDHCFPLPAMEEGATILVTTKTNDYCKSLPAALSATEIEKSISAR

T2: biotinylated human BCMA-Fc, Avitag recombinant protein (ACRO Biosystems, #BC7-H82F0) (human, UniProt Q02223 1-54, biotinylated)
T2 construct: extracellular domain; Bought protein; also called human BCMA protein; recombinant human BCMA-ECD-Fc; not shown: Fc of the bought fusion protein; Avitag
T2 sequence (looked up): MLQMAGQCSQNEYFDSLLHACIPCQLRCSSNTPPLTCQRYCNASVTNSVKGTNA

T3: human BCMA on NCI-H929 cells (ATCC, CRL-9068) (human, UniProt Q02223 1-184)
T3 sequence (looked up): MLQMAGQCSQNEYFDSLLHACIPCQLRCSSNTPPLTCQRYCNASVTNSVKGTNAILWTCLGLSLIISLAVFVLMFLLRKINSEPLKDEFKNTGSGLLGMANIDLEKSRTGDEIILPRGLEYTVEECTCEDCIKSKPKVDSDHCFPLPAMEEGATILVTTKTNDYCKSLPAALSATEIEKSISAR

T4: biotinylated human BCMA-Fc, Avitag recombinant protein (ACRO Biosystems, #BC7-H82F0) (human, UniProt Q02223 1-54, biotinylated (Avitag))
T4 construct: extracellular domain; Bought protein; also called huBCMA.Fc; recombinant human BCMA-ECD-Fc
T4 sequence (looked up): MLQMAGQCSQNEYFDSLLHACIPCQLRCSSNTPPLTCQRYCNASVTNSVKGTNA


Assays:
human BCMA [1] = target: T1, human BCMA; assay: flow cytometry, NCI-H929 cells
human BCMA [2] = target: T1, human BCMA; assay: flow cytometry, HEK293T/hBCMA cells
cynomolgus monkey BCMA = target: T5, cynomolgus monkey BCMA (cynomolgus monkey); assay: flow cytometry, HEK293T/cyno BCMA cells
T5 construct: whole, on cells; also called cyno BCMA; HEK293T/cyno BCMA cells

[3] = target: T2, biotinylated human BCMA-Fc, Avitag …; assay: BLI (Octet Red96e), biotinylated BCMA-Fc on SA sensor, antibody in solution, 1:1 global fit
[4] = target: T3, human BCMA on NCI-H929 cells (ATCC, …); assay: cell-based or functional assay
[5] = target: T3, human BCMA on NCI-H929 cells (ATCC, …); assay: cell-based or functional assay; remark: listed apart in the source
[6] = target: T3, human BCMA on NCI-H929 cells (ATCC, …); assay: cell-based or functional assay; remark: listed apart in the source
[7] = target: T6, cynomolgus monkey CD3 (TCR/CD3 complex) on cynomolgus monkey T cells (cynomolgus monkey); assay: flow cytometry (FACS) on cynomolgus monkey T cells
T6 construct: whole, on cells

[8] = target: T7, human CD3 (TCR/CD3 complex) on human T cells (human, UniProt P07766 23-207); assay: flow cytometry (FACS) on human T cells, Experiment 1
T7 construct: whole, on cells

[9] = target: T7, human CD3 (TCR/CD3 complex) on human T …; assay: flow cytometry (FACS) on human T cells, Experiment 3
[10] = target: T8, cynomolgus monkey BCMA (ACRO Biosystems, #BCA-C82F4) (cynomolgus monkey, UniProt A0A2K5UD97 1-53); assay: BLI (Octet Red96e), cyBCMA.Fc on SA sensor, 1:1 global fitting
T8 construct: Bought protein; also called cyBCMA.Fc

[11] = target: T8, cynomolgus monkey BCMA (ACRO …); assay: BLI; KD for cynomolgus monkey BCMA divided by KD for human BCMA
[12] = target: T4, biotinylated human BCMA-Fc, Avitag …; assay: BLI (Octet Red96e), biotinylated BCMA-Fc on SA sensor, 1:1 global fitting;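 further: Anti-BCMA antibodies analysed as binding partners of the captured BCMA antigen, with reference signals removed by double referencing before kinetic fitting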

T7 sequence (P07766 23-207, one chain of several): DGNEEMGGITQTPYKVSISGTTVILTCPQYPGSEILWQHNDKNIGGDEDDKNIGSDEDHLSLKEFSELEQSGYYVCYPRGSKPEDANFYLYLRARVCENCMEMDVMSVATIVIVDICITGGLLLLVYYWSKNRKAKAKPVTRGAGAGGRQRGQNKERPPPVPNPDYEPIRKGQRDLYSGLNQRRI
T8 sequence (A0A2K5UD97 entry or part of it): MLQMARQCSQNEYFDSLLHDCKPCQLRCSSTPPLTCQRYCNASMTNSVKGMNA
T6 sequence (Q95LI5 22-198, one chain of several): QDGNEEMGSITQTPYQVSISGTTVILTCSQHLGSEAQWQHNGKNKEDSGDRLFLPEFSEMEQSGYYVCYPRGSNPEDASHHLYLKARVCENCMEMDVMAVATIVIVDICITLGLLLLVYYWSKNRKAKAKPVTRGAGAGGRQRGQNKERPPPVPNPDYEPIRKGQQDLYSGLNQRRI

| Binder | IFN-γ release, EC50 [4] [nM] | IFN-γ release, Maximum [4] [pg/mL] | IL-2 release, EC50 [4] [nM] | IL-2 release, Maximum [4] [pg/mL] | IL-6 release, EC50 [4] [nM] | IL-6 release, Maximum [4] [pg/mL] | IL-10 release, EC50 [4] [nM] | IL-10 release, Maximum [4] [pg/mL] | NCI-H929 killing, EC50 [4] [nM] | NCI-H929 killing, Maximum killing rate % [4] [%] | TNF-α release, EC50 [4] [nM] | TNF-α release, Maximum [4] [pg/mL] | Killing EC50 (nM), T cell + NCI-H929, + 10 ng/mL sAPRIL [5] [nM] | Killing EC50 (nM), T cell + NCI-H929, + 10 ng/mL sBAFF [5] [nM] | Killing EC50 (nM), T cell + NCI-H929, + 100 ng/mL sAPRIL [5] [nM] | Killing EC50 (nM), T cell + NCI-H929, + 100 ng/mL sBAFF [5] [nM] | Killing EC50 (nM), T cell + NCI-H929, no soluble ligand [5] [nM] | Killing EC50 (nM), T cell + NCI-H929, + 125 ng/mL sBCMA [6] [nM] | Killing EC50 (nM), T cell + NCI-H929, + 250 ng/mL sBCMA [6] [nM] | Killing EC50 (nM), T cell + NCI-H929, no sBCMA [6] [nM] | other results |
| --- | --- | --- | --- | --- | --- | --- | --- | --- | --- | --- | --- | --- | --- | --- | --- | --- | --- | --- | --- | --- | --- |
| PR001035, anti-BCMA HCAb antibody, clone 1005P36F3 (antibody, human IgG1, V domains shown, Heavy-chain-only antibody (HCAb), human IgG1 Fc, no light chain) VH: EVQLVETGGGLIQPGGSLRLSCAASGFTVSSNYMTWVRQAPGKGLEWVSVIFSGGSTYYADSVKGRFTISRDNSKNTLYLQMNSLRAEDTAVYYCARRIAVAGHDVFDIWGQGTMVTVSS |  |  |  |  |  |  |  |  |  |  |  |  |  |  |  |  |  |  |  |  | EC50 (human BCMA [1]): 1.19 nM; Maximum MFI (human BCMA [1]): 113000; EC50 (human BCMA [2]): 0.336 nM; Maximum MFI (human BCMA [2]): 39800; Maximum MFI (cynomolgus monkey BCMA): 10800; Kd [3]: 0.276 nM; koff [3]: 8.98e-05 s⁻¹; kon [3]: 325000 M⁻¹ s⁻¹ |
| PR001990 (bispecific antibody, human IgG1, lambda, L234A L235A) light: QAVVTQEPSLTVSPGGTVTLTCRSSTGAVTTSNYANWVQQKPGQAPRGLIGGTNKRAPWTPARFSGSLLGDKAALTLLGAQPEDEAEYFCALWYSNLWVFGGGTKLTVLGQPKAAPSVTLFPPSSEELQANKATLVCLISDFYPGAVTVAWKADSSPVKAGVETTTPSKQSNNKYAASSYLSLTPEQWKSHRSYSCQVTHEGSTVEKTVAPTECS heavy: EVQLLESGGGLVQPGGSLRLSCAASGFTFNTYAMNWVRQAPGKGLEWVSRIRSKYNNYATYYADSVKDRFTISRDDSKSTLYLQMNSLRAEDTAVYYCVRHGNFGNSYVSWFAYWGQGTLVTVSSASTKGPSVFPLAPSSKSTSGGTAALGCLVKDYFPEPVTVSWNSGALTSGVHTFPAVLQSSGLYSLSSVVTVPSSSLGTQTYICNVNHKPSNTKVDKKVEPKSCDKTHTCPPCPAPEAAGGPSVFLFPPKPKDTLMISRTPEVTCVVVDVSHEDPEVKFNWYVDGVEVHNAKTKPREEQYNSTYRVVSVLTVLHQDWLNGKEYKCKVSNKALGAPIEKTISKAKGQPREPQVYTLPPCREEMTKNQVSLWCLVKGFYPSDIAVEWESNGQPENNYKTTPPVLDSDGSFFLYSKLTVDKSRWQQGNVFSCSVMHEALHNHYTQKSLSLSPGK EVQLVETGGGLIQPGGSLRLSCAASGFTVSDNYMTWVRQAPGKGLEWVSVIFSGGNTYYADSVKGRFTISRDNAKNTLYLQMNSLRAEDTALYYCARRNYDDTRGTDVFDIWGQGTMVTVSSASEPKSSDKTHTCPPCPAPEAAGGPSVFLFPPKPKDTLMISRTPEVTCVVVDVSHEDPEVKFNWYVDGVEVHNAKTKPREEQYNSTYRVVSVLTVLHQDWLNGKEYKCKVSNKALGAPIEKTISKAKGQPREPQVCTLPPSREEMTKNQVSLSCAVKGFYPSDIAVEWESNGQPENNYKTTPPVLDSDGSFFLVSKLTVDKSRWQQGNVFSCSVMHEALHNHYTQKSLSLSPGK | 1.36 | 1230 | 5.29 | 185 | 8.2 | 273 | 1.96 | 777 | 0.59 | 61.4 | 5.49 | 1200 | 0.0879 | 0.0787 | 0.154 | 0.094 | 0.0733 | 0.234 | 0.387 | 0.0787 | Killing EC50 (nM), T cell + NCI-H929, + 62.5 ng/ml sBCMA [6]: 0.176 nM; Killing EC50 (nM), T cell + NCI-H929, + 500 ng/mL sBCMA [6]: 0.546 nM; Maximum MFI [7]: 15600 MFI; Maximum MFI [8]: 5450 MFI; Maximum MFI [9]: 350000 MFI; Kd [10]: 3.35 nM; koff [10]: 0.0025 s⁻¹; kon [10]: 746000 M⁻¹ s⁻¹; KD ratio (cy BCMA/hu BCMA) [11]: 1.72; Kd [12]: 1.95 nM; koff [12]: 0.000629 s⁻¹; kon [12]: 322000 M⁻¹ s⁻¹ |
| PR002309 (bispecific antibody, human IgG1, lambda, L234A L235A) light: QAVVTQEPSLTVSPGGTVTLTCRSSTGAVTTSNYANWVQQKPGQAPRGLIGGTNKRAPWTPARFSGSLLGDKAALTLLGAQPEDEAEYFCALWYSNLWVFGGGTKLTVLGQPKAAPSVTLFPPSSEELQANKATLVCLISDFYPGAVTVAWKADSSPVKAGVETTTPSKQSNNKYAASSYLSLTPEQWKSHRSYSCQVTHEGSTVEKTVAPTECS heavy: EVQLLESGGGLVQPGGSLRLSCAASGFTFSTYAMNWVRQAPGKGLEWVSRIRSKYNNYATYYADSVKDRFTISRDDSKSTLYLQMNSLRAEDTAVYYCVRHGNFGNSYVSWFAYWGQGTLVTVSSASTKGPSVFPLAPSSKSTSGGTAALGCLVKDYFPEPVTVSWNSGALTSGVHTFPAVLQSSGLYSLSSVVTVPSSSLGTQTYICNVNHKPSNTKVDKKVEPKSCDKTHTCPPCPAPEAAGGPSVFLFPPKPKDTLMISRTPEVTCVVVDVSHEDPEVKFNWYVDGVEVHNAKTKPREEQYNSTYRVVSVLTVLHQDWLNGKEYKCKVSNKALGAPIEKTISKAKGQPREPQVYTLPPCREEMTKNQVSLWCLVKGFYPSDIAVEWESNGQPENNYKTTPPVLDSDGSFFLYSKLTVDKSRWQQGNVFSCSVMHEALHNHYTQKSLSLSPGK EVQLVETGGGLIQPGGSLRLSCAASGFTVSDNYMTWVRQAPGKGLEWVSVIFSGGNTYYADSVKGRFTISRDNAKNTLYLQMNSLRAEDTALYYCARRNYDDTRGTDVFDIWGQGTMVTVSSRTGGGGSGGGGSGGGGSKLEVQLVETGGGLIQPGGSLRLSCAASGFTVSDNYMTWVRQAPGKGLEWVSVIFSGGNTYYADSVKGRFTISRDNAKNTLYLQMNSLRAEDTALYYCARRNYDDTRGTDVFDIWGQGTMVTVSSASEPKSSDKTHTCPPCPAPEAAGGPSVFLFPPKPKDTLMISRTPEVTCVVVDVSHEDPEVKFNWYVDGVEVHNAKTKPREEQYNSTYRVVSVLTVLHQDWLNGKEYKCKVSNKALGAPIEKTISKAKGQPREPQVCTLPPSREEMTKNQVSLSCAVKGFYPSDIAVEWESNGQPENNYKTTPPVLDSDGSFFLVSKLTVDKSRWQQGNVFSCSVMHEALHNHYTQKSLSLSPGK | 0.0194 | 1950 | 0.0375 | 222 | 0.195 | 209 | 0.0298 | 1050 | 0.00772 | 69.5 | 0.0445 | 1300 | 0.000538 | 0.000447 | 0.000991 | 0.000474 | 0.000439 | 0.00347 | 0.005 | 0.000393 | Killing EC50 (nM), T cell + NCI-H929, + 62.5 ng/mL sBCMA [6]: 0.00296 nM; Killing EC50 (nM), T cell + NCI-H929, + 500 ng/ml sBCMA [6]: 0.0088 nM; Maximum MFI [7]: 11700 MFI; Maximum MFI [9]: 317000 MFI; Kd [10]: 0.141 nM; koff [10]: 0.000116 s⁻¹; kon [10]: 823000 M⁻¹ s⁻¹; KD ratio (cy BCMA/hu BCMA) [11]: 3.16; Kd [12]: 0.0448 nM; koff [12]: 1.89e-05 s⁻¹; kon [12]: 422000 M⁻¹ s⁻¹ |
